Results published in patent US20230295295A1 (published 2023).
Where a chain is given by its changes, count along the chain named. Several values for one entry are separate records, joined by “and”; a condition that tells them apart may be missing. Equal entries are not always repeated.

Legend:
[1] = target: T1, Human LAG-3 expressed on cells (human, UniProt P18627 23-525); assay: cell-based or functional assay
T1 sequence (looked up): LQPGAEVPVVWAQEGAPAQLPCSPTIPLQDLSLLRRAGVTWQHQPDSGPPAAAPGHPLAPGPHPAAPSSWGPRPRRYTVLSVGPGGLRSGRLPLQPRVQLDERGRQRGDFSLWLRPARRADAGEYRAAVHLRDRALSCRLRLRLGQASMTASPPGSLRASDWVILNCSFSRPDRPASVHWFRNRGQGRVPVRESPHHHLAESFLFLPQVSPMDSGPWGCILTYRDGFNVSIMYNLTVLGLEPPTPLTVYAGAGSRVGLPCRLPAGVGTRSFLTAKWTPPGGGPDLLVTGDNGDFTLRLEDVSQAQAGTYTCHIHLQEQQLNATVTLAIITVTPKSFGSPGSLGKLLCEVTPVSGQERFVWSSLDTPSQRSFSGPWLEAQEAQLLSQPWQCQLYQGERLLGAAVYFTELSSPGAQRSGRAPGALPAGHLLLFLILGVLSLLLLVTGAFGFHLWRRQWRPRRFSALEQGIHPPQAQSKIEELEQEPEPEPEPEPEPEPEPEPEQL

[2] = target: T2, Recombinant human LAG-3 ECD-His6 (human, UniProt P18627 23-433); assay: SPR Biacore T100, Anova comparison of KD on LAG-3 ECD-His6
T2 construct: also called LAG-3-His; recombinant human LAG-3-His
T2 sequence: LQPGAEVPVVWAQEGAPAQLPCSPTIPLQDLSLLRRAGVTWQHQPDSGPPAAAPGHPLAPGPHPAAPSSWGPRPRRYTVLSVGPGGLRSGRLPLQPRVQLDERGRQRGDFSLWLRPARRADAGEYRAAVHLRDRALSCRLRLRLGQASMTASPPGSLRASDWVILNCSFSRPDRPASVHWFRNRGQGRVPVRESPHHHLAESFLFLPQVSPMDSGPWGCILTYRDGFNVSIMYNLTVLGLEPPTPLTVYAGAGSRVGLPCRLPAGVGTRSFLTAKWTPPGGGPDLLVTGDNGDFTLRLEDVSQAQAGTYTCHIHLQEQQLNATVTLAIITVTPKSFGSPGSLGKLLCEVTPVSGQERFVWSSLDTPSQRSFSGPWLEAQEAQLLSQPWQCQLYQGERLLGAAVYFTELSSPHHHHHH
Description: (§1) Wild type fucosylated and afucosylated antibodies were compared for their ability to bind to recombinant human LAG-3 ECD with a C-terminal His6 (SEQ ID NO:51) using the Biacore® T100 (GE Healthcare®). Protein A was immobilised on a CM5 chip by primary amine coupling. This surface was then used to capture the humanised antibodies. Recombinant human LAG-3 ECD-His6 was then passed over the captured antibodies at 32, 8, 2, 0.5 and 0.125 nM and regeneration was carried out using 50 mM NaOH. The binding curves were double referenced with buffer injection (i.e. 0 nM) and the data was fitted to the T100 analysis software using the 1:1 model. The run was carried out at 25° C., using HBS-EP as the running buffer.
(§2) In order to investigate the statistical significance of this kinetic data, this experiment was repeated 3 times with the same batch of the four antibodies and the chimeric control. KD, ka and kd parameters were each log (base 10) transformed prior to separate statistical analyses. For each parameter, a mixed model analysis of variance (‘Anova’) was performed on transformed data, including terms for Run (random block effect) and Antibody.
(§3) From the Anova, geometric means were predicted for each antibody, along with statistically plausible ranges (95% confidence intervals) for each mean. Planned comparisons of antibodies were performed within the Anova. […]

[3] = target: T2, Recombinant human LAG-3 ECD-His6; assay: SPR Biacore T100, Anova comparison of kd on LAG-3 ECD-His6
Description: as §1, §2, §3

[4] = target: T3, Recombinant cynomolgus macaque LAG-3 ECD-His6 (cynomolgus macaque, UniProt P18627 24-433 (human entry)); assay: SPR Biacore T100, antibody captured on protein A, LAG-3 ECD-His6 analyte, 37 C, 1:1 model
T3 construct: made in house; also called cyno LAG-3
T3 chain: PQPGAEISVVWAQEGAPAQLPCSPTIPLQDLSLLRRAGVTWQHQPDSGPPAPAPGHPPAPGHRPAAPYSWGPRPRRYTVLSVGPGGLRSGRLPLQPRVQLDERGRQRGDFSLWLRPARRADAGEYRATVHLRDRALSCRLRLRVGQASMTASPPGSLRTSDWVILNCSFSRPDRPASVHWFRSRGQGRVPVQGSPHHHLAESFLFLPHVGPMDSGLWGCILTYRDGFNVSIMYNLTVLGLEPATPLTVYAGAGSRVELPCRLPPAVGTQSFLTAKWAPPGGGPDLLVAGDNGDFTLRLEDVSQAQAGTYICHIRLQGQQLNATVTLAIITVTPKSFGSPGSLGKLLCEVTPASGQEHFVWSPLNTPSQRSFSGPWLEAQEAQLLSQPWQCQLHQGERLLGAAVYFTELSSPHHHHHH
Description: (§4) The binding cross reactivity of anti-LAG-3 humanised antibodies for both cynomolgus macaque (cyno) and baboon recombinant LAG-3 ECD-His6 (SEQ ID NOs 52 and 53, respectively) was assessed using the Biacore® T100 (GE Healthcare®).
(§5) Protein A was immobilised on a CM5 chip by primary amine coupling. This surface was then used to capture the humanised antibodies. In-house generated recombinant cynomolgus macaque and baboon LAG-3 ECD-His6 were then passed over the captured antibodies and regeneration was carried out using 50 mM NaOH. LAG-3 ECD-His6 was passed over at 16, 4, 1, 0.25 and 0.0625 nM. The binding curves were double referenced with buffer injection (i.e. 0 nM) and the data was fitted to the T100 analysis software using the 1:1 model. The run was carried out at 37° C. using HBS-EP as the running buffer.

[5] = target: T4, Recombinant baboon LAG-3 ECD-His6 (baboon, UniProt P18627 24-433 (human entry)); assay: as above
T4 construct: made in house
T4 chain: T3 chain with R188Q, G193E, A243T, A288V, D293N, H357R
Description: as §4, §5

[6] = target: T2, Recombinant human LAG-3 ECD-His6; assay: SPR Biacore T100, antibody captured on protein A, LAG-3 ECD-His6 analyte, 25 C, 1:1 model, geometric mean of 3 runs
Description: as §1, §2, §3

B1: H5L7BW (antibody, human IgG1, kappa, V domains shown)
VH: QVQLQESGPGLVKPSETLSLTCTVSGFSLTAYGVNWIRQPPGKGLEWIGMIWDDGSTDYDSALKSRVTISVDTSKNQFSLKLSSVTAADTAVYYCAREGDVAFDYWGQGTLVTVSS
VL: DIQMTQSPSSLSASVGDRVTITCKSSQSLLNPSNQKNYLAWYQQKPGKAPKLLVYFASTRDSGVPSRFSGSGSGTDFTLTISSLQPEDFATYYCLQHFGTPPTFGQGTKLEIKR
notes: Afucosylated form of H5L7: plasmids encoding H5L7 expressed in the BioWa Potelligent (FUT8 knock-out CHO) cell line; also called afucosylated H5L7BW
EC50, depletion of antigen specific CD4 T cells by ADCC (primary human T cells, autologous NK cells) [1]: 14 pg/mL and 3.4 ng/mL | EC50, depletion of antigen specific LAG-3 positive CD8 T cells by ADCC [1]: 0.122 ng/mL and 17.5 ng/mL | KD ratio (H5L7BW against H5L7) [2]: 1.05 | kd ratio (H5L7BW against H5L7) [3]: 1.12 | Kd [4]: 0.021 nM | Kd [5]: 0.024 nM | koff [6]: 0.00441 s⁻¹
